PMC10397247

Tests used:
[1] = target: T1, O3-bP; test: two-hybrid library CCNG1;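 further: natural log of median RNA to DNA barcode read ratio; higher means stronger binding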
T1 chain: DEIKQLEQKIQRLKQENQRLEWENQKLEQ

[2] = target: T2, O2-bP; test: two-hybrid library CCNG1;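 further: natural log of median RNA to DNA barcode read ratio; higher means stronger binding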
T2 chain: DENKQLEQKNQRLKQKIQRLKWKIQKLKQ

[3] = target: T3, O5-bP; test: two-hybrid library CCNG1;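 further: natural log of median RNA to DNA barcode read ratio; higher means stronger binding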
T3 chain: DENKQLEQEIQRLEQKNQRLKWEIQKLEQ

[4] = target: T4, O8-bP; test: two-hybrid library CCNG1;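 further: natural log of median RNA to DNA barcode read ratio; higher means stronger binding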
T4 chain: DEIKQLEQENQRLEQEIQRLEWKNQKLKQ

[5] = target: T5, O6-bP; test: two-hybrid library CCNG1
T5 chain: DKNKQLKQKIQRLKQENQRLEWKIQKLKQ

[6] = target: T6, O9-bP; test: two-hybrid library CCNG1
T6 chain: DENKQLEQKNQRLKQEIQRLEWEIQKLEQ

[7] = target: T7, O15-bP; test: two-hybrid library CCNG1
T7 chain: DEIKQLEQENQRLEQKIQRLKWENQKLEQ

[8] = target: T8, O7-bP; test: two-hybrid library CCNG1
T8 chain: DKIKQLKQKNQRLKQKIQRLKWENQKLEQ

[9] = target: T9, O14-bP; test: two-hybrid library CCNG1
T9 chain: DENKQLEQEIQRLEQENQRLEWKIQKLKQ

[10] = target: T10, O4-bP; test: two-hybrid library CCNG1
T10 chain: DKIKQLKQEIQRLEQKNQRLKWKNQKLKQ

[11] = target: T11, O16-bP; test: two-hybrid library CCNG1
T11 chain: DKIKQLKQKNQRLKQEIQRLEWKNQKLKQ

[12] = target: T12, 4H363-bH; test: two-hybrid library CCNG1
T12 chain: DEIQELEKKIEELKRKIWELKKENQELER

[13] = target: T13, 4H3961-bH; test: two-hybrid library CCNG1
T13 chain: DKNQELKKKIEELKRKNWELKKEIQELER

[14] = target: T14, 4H3907-bH; test: two-hybrid library CCNG1
T14 chain: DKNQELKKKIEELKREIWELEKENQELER

[15] = target: T15, 4H344-bH; test: two-hybrid library CCNG1
T15 chain: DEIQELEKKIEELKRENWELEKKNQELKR

[16] = target: T16, 4H470-bH; test: two-hybrid library CCNG1
T16 chain: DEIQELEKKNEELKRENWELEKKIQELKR

[17] = target: T17, APC5009-AA; test: two-hybrid library CCmax; settings: mean of both orientations
T17 chain: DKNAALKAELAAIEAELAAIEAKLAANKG

[18] = target: T18, APC542-AA; test: two-hybrid library CCmax; settings: mean of both orientations
T18 chain: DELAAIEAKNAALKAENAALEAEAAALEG

[19] = target: T19, APC2981-AA; test: two-hybrid library CCmax; settings: mean of both orientations
T19 chain: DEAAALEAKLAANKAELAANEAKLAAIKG

[20] = target: T20, APC2375-AA; test: two-hybrid library CCmax; settings: mean of both orientations
T20 chain: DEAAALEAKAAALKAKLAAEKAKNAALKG

[21] = target: T21, APC2556-AA; test: two-hybrid library CCmax; settings: mean of both orientations
T21 chain: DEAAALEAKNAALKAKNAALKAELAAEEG

[22] = target: T22, APC3323-AA; test: two-hybrid library CCmax; settings: mean of both orientations
T22 chain: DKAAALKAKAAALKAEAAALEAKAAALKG

[23] = target: T23, APC3354-AA; test: two-hybrid library CCmax; settings: mean of both orientations
T23 chain: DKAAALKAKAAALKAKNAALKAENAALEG

[24] = target: T24, APC2811-AA; test: two-hybrid library CCmax; settings: mean of both orientations
T24 chain: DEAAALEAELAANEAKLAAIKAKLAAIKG

[25] = target: T25, APC2257-AA; test: two-hybrid library CCmax
T25 chain: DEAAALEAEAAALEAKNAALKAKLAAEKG

[26] = target: T26, APC4336-AA; test: two-hybrid library CCmax; settings: mean of both orientations
T26 chain: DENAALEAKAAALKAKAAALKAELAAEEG

[27] = target: T27, APC2543-AA; test: two-hybrid library CCmax; settings: mean of both orientations
T27 chain: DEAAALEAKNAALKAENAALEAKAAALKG

[28] = target: T28, APC3881-AA; test: two-hybrid library CCmax; settings: mean of both orientations
T28 chain: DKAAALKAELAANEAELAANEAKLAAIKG

[29] = target: T29, APC2474-AA; test: two-hybrid library CCmax; settings: mean of both orientations
T29 chain: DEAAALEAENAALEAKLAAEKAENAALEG

[30] = target: T30, APC9141-AA; test: two-hybrid library CCmax; settings: mean of both orientations
T30 chain: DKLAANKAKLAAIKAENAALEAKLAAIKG

[31] = target: T31, APC8401-AA; test: two-hybrid library CCmax; settings: mean of both orientations
T31 chain: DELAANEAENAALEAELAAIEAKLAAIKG

[32] = target: T32, APC9182-AA; test: two-hybrid library CCmax; settings: mean of both orientations
T32 chain: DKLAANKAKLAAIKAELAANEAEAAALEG

[33] = target: T33, APC2724-AA; test: two-hybrid library CCmax; settings: mean of both orientations
T33 chain: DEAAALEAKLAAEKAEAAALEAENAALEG

[34] = target: T34, APC9806-AA; test: two-hybrid library CCmax; settings: mean of both orientations
T34 chain: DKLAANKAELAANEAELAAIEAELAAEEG

[35] = target: T35, APC9291-AA; test: two-hybrid library CCmax; settings: mean of both orientations
T35 chain: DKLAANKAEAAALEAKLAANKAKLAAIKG

[36] = target: T36, APC7524-AA; test: two-hybrid library CCmax; settings: mean of both orientations
T36 chain: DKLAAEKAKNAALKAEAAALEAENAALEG

[37] = target: T37, APC5531-AA; test: two-hybrid library CCmax; settings: mean of both orientations
T37 chain: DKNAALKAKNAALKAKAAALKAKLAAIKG

[38] = target: T38, APC6088-AA; test: two-hybrid library CCmax; settings: mean of both orientations
T38 chain: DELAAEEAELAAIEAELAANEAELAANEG

[39] = target: T39, APC4100-AA; test: two-hybrid library CCmax; settings: mean of both orientations
T39 chain: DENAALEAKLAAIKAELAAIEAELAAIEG

[40] = target: T40, APC3265-AA; test: two-hybrid library CCmax
T40 chain: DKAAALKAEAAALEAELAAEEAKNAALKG

[41] = target: T41, APC8516-AA; test: two-hybrid library CCmax; settings: mean of both orientations
T41 chain: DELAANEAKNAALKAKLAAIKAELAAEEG

[42] = target: T42, 4H807-AA; test: two-hybrid library CCmax; settings: mean of both orientations
T42 chain: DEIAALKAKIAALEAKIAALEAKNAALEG

[43] = target: T43, 4H716-AA; test: two-hybrid library CCmax; settings: mean of both orientations
T43 chain: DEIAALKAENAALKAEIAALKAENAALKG

[44] = target: T44, 4H733-AA; test: two-hybrid library CCmax; settings: mean of both orientations
T44 chain: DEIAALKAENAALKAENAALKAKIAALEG

[45] = target: T45, APC8910-AA; test: two-hybrid library CCmax; settings: mean of both orientations
T45 chain: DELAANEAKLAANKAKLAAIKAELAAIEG

[46] = target: T46, APC2237-AA; test: two-hybrid library CCmax; settings: mean of both orientations
T46 chain: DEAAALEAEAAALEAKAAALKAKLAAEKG

[47] = target: T47, APC9096-AA; test: two-hybrid library CCmax; settings: mean of both orientations
T47 chain: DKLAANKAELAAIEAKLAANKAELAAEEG

[48] = target: T48, 4H2458-AA; test: two-hybrid library CCmax
T48 chain: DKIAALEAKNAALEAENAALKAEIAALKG

[49] = target: T49, APC4011-AA; test: two-hybrid library CCmax; settings: mean of both orientations
T49 chain: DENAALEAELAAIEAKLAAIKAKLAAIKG

[50] = target: T50, APC4436-AA; test: two-hybrid library CCmax; settings: mean of both orientations
T50 chain: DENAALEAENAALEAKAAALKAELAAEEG

[51] = target: T51, APC232-AA; test: two-hybrid library CCmax; settings: mean of both orientations
T51 chain: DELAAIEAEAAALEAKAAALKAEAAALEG

[52] = target: T52, APC8191-AA; test: two-hybrid library CCmax; settings: mean of both orientations
T52 chain: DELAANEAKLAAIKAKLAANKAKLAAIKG

[53] = target: T53, APC5383-AA; test: two-hybrid library CCmax; settings: mean of both orientations
T53 chain: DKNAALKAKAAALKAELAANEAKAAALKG

[54] = target: T54, APC7099-AA; test: two-hybrid library CCmax; settings: mean of both orientations
T54 chain: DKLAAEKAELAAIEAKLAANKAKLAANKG

[55] = target: T55, APC1434-AA; test: two-hybrid library CCmax; settings: mean of both orientations
T55 chain: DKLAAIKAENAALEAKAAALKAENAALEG

[56] = target: T56, APC1015-AA; test: two-hybrid library CCmax; settings: mean of both orientations
T56 chain: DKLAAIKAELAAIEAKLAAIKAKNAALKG

[57] = target: T57, APC3645-AA; test: two-hybrid library CCmax; settings: mean of both orientations
T57 chain: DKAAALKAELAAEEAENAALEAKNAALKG

[58] = target: T58, 4H3330-AA; test: two-hybrid library CCmax; settings: mean of both orientations
T58 chain: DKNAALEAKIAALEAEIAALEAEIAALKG

[59] = target: T59, APC4264-AA; test: two-hybrid library CCmax; settings: mean of both orientations
T59 chain: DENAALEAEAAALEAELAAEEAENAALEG

[60] = target: T60, APC9319-AA; test: two-hybrid library CCmax; settings: mean of both orientations
T60 chain: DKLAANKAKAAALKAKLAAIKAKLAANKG

[61] = target: T61, APC6108-AA; test: two-hybrid library CCmax; settings: mean of both orientations
T61 chain: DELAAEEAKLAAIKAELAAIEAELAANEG

[62] = target: T62, APC2405-AA; test: two-hybrid library CCmax; settings: mean of both orientations
T62 chain: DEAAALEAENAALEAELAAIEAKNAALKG

[63] = target: T63, O13-bP; test: two-hybrid library CCNG1
T63 chain: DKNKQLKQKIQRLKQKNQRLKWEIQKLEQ

Binder: DENKQLEQEIQRLEQENQRLEWKIQKLKQ [O14-bP]
- interaction score [1]: -0.787
- interaction score [2]: -0.77
- interaction score [3]: 1.11
- interaction score [4]: -2.05
- interaction score [5]: 1.82
- interaction score [6]: -0.215
- interaction score [7]: -0.0315
- interaction score [8]: 0.0513
- interaction score [9]: -1.46
- interaction score [10]: -1.04
- interaction score [11]: 1.73

Binder: DEIQELEKKIEELKRENWELEKKNQELKR [4H344-bH]
- interaction score [12]: 0.49
- interaction score [13]: 0.837
- interaction score [14]: 0.791
- interaction score [15]: 0.843
- interaction score [16]: 0.944

Binder: DEAAALEAEAAALEAKNAALKAKLAAEKG [APC2257-AA]
- interaction score [17]: -1.07
- interaction score [18]: -1.54
- interaction score [19]: -1.18
- interaction score [20]: -1.42
- interaction score [21]: -1.99
- interaction score [22]: -1.58
- interaction score [23]: -1.45
- interaction score [24]: 1.49
- interaction score [25]: -1.12
- interaction score [26]: -1.71
- interaction score [27]: -1.02
- interaction score [28]: -1.31
- interaction score [29]: -1.46
- interaction score [30]: -1.37
- interaction score [31]: -1.32
- interaction score [32]: -1.86
- interaction score [33]: -1.47
- interaction score [34]: -1.79
- interaction score [35]: -1.61
- interaction score [36]: -1.59
- interaction score [37]: -1.97
- interaction score [38]: -1.24
- interaction score [39]: -1.56
- interaction score [40]: -1.43
- interaction score [41]: -1.64

Binder: DKIAALEAKNAALEAENAALKAEIAALKG [4H2458-AA]
- interaction score [42]: -1.17
- interaction score [43]: -0.991
- interaction score [44]: -1.61
- interaction score [45]: -1.49
- interaction score [46]: -1.44
- interaction score [47]: -1.34
- interaction score [48]: 2.24
- interaction score [49]: -0.914
- interaction score [50]: -1.67
- interaction score [51]: -1.85
- interaction score [52]: -2.11
- interaction score [53]: -1.7
- interaction score [54]: -1.31
- interaction score [55]: -1.22
- interaction score [56]: -1.95
- interaction score [57]: -1.47
- interaction score [58]: -1.38
- interaction score [59]: -1.79
- interaction score [60]: -2.07
- interaction score [61]: -1.71
- interaction score [62]: -1.59

Binder: DKNKQLKQKIQRLKQKNQRLKWEIQKLEQ [O13-bP]
- interaction score [1]: -1.76
- interaction score [2]: -1.3
- interaction score [3]: -0.814
- interaction score [4]: -0.609
- interaction score [5]: -0.094
- interaction score [6]: -1.05
- interaction score [7]: -0.599
- interaction score [63]: -2.25
- interaction score [8]: -1.19
- interaction score [9]: 1.35
- interaction score [10]: -0.851
- interaction score [11]: -1.17
